In US20190111164A1 one finds RLU data, which are given here for 3 molecules.

What all share (experiment): glycopeptide microarray, antibody at 50 ug/mL
One test addresses T1, IgA-Pep11.
T1 sequence (peptide, Tn (GalNAc, marked *) on S3, S5 and T9): KPSPSTPPTPSC

A further test addresses PADRE Tn3b.
For the next test, the target named is T2, IgA-Pep13.
T2 sequence (peptide, Tn (GalNAc, marked *) on S3 and T7): KPSTPPTPSPSC

In the next test the target is Tn3 linker.
In another test the target is T3, D-MUC2.
T3 sequence (peptide, N-terminal acetyl; Tn (GalNAc, marked *) on T2 and T3; C-terminal amide): PTTTPLK

The target in the next test is T4, B-MUC2.
T4 sequence (peptide, N-terminal acetyl; Tn (GalNAc, marked *) on T3; C-terminal amide): PTTTPLK

B1: 2F3 variant #6 (antibody, IgG1, V domains shown)
VH: QVQLLESGGGLVQPGGSLRLSCAASGFTFDSYAMSWVRQAPGKGLEWVSAISGSGASTYYADSVKGRFSISRDNSKNTLYLQMNSLRAEDTAVYYCAIRREYSGYAPFDYWGQGTLVIVSS
VL: DIVMTQTPSSLSASVGDRVTITCRASQGISSWLAWYQQKPEKAPRSLIYAASSLQSGVPSRFSGSGSGTDFTLTISSLQPEDFATYYCQQYISYPYTFGQGTKLEIK
As to B1, the RLU with IgA-Pep11 is 311 RLU; with PADRE Tn3b it was -84 RLU; in the test with IgA-Pep13, 253 RLU; in the test with Tn3 linker, 21 RLU.

B2: 2F3 parent antibody (antibody, V domains shown)
VH: QITLRESGGGLVQPGGSLRLSCAASGFTFDSYAMSWVRQAPGKGLEWVSAISGSGDSTYYADSVKGRFSISRDNSKNTLYLQMNSLRAEDTAVYYCAIRREYSGYAPFDYWGQGTLVTVSS
VL: DIVMTQTPSSLSASVGDRVTITCRASQGISSWLAWYQQKPEKAPRSLIYAASSLQSGVPSRFSGSGSGTDFTLTISSLQPEDFATYYCQQYISYPYTFGQGTKLEIK
Regarding B2, the RLU in the test with PADRE Tn3b is 13 RLU; with Tn3 linker it was 8 RLU.

B3: 2F3 variant #17v2 (antibody, IgG1, V domains shown)
VH: QITLRESGGGLVQPGGSLRLSCAASGFTFDSYAMSWVRQAPGKGLEWVSAISGSGHSTYYADSVKGRFSISRDNSKNTLYLQMNNLRAEDTAVYYCAIRREYSGYAPFDYWGQGTLVTVSS
VL: DIVMTQTPSSLSASVGDRVTITCRASQGISSWLAWYQQKPEKAPRSLIYAASSLQSGVPSRFSGSGSGTDFTLTISSLQPEDFATYYCQQYISYPYTFGQGTKLEIK
Consider B3, for which the RLU with D-MUC2 came out at 179 RLU; with PADRE Tn3b, 49 RLU; with Tn3 linker, 24 RLU; with B-MUC2 it was 237 RLU.
